Source: the DeepSol protein solubility set

test: soluble on expression in E. coli; label from the status in PepcDB or PDB records

For “MKPTDTSEKALEQLIVRHLAGISEHASVPPNAVQSPGAIYALGGYVLGRATDFNRDVALDTVQLLAFLQATQPDAVETLELAHEGIKRTQFLHRLQGEITKRGVVDVLRKGVSHGPVRVDLYRLLPTPGNTNAAEAFGRNIFSITRQVRYSHDSGNELDLVIFVNGLPVLTFELKNSLTKQTVADAIVQYQSTRSPQELLFQPGRCIAHFAVDDAEVYFCTELKGKASWFLPFNQGWNNGAGNPPNPNGLKTDYLWKQVLAKESLANIIESFAQVVEEQETDATTGRKKKKRKPVFPRFHQLRTVRALLRRTRSDGVGKRYLIQHSAGSGKSNTIAWLAHQLVELRSVADPLMPQFDSIIVITDRRALDTQIARTIKGYDHVASIFGHSDNAQELRDYLRRGRKIIVTTVQKFPFILEEIGDLSGRTFALLIDEAHSSQGGKTTARMHEALSGKTDEEAFEEDATQDAVNTEIEKRIQSRRMLSNASYFAFTATPKNRTLELFGEKTVVDDKVEFRSPEELTYTTKQAIQEGFILDVIAHYTTLDSFYQVAKTVENDPDFDKARALKKIRHYVESHDKAIRRKAEIMVDHFVAQVMGAKKIGGKARAMIVCNGIARAIDYWREVSDYLEQIKSPYKAIVAYSGEFEIGGEKKTEADLNDFPSKEIPDRLRQDPYRFLIVANKFVTGFDEPLLHTMYVDKKLAGVQAVQTLSRLNRAHPQKHDTFVLDFADNAEAVKKAFQDYYRATIQTGETDANKLHDLKADLDDKQIYSWPQVEDLVALYLSGADRDKLDPILDHCVEQYQANLDEDNQVEFKGKAKAFVRSYGFLAAILSYGHPAWEKLSIFLNFLIPKLPAPKEEDLSKGVLESIDIDSYRVEARAALKMAMDDTDATVEVAPVGGGGGKGEPDIDKLSNILKTFNDLFGNIDWKDADKIGKVIAEEIPVRVAQDKAYQNAQVNSDRQNAKLEHDKALNRVVLELLSDHTELFKQFSDNPNFKRWLTDMVFDVTYQQNPAHGVEDVRMRALDIVRDRFDAAVVWSQAVDMLLDRLAAGGRNSLGIADLALIEETSGLSVSHVLFPVLNLLSAHDVGILNREFVRVGSTDTPQTMSFDEVRLLAQKDPEGDDWAECLSIRWALQDAQR”, which “soluble on expression in E. coli” value is on record?
The value was “not soluble”.

With “MELFTEAWAQAYCRKLNESEAYRKAASTWEGSLALAVRPDPKAGFPKGVAVVLDLWHGACRGAKAVEGEAEADFVIEADLATWQEVLEGRLEPLSALMRGLLELKKGTIAALAPYAQAAQELVKVAREVA” as the sequence, how does the “soluble on expression in E. coli” value read?
Its value is “soluble”.

For “GSTERPVAGPYITFTDAVNETTIMLKWMYIPASNNNTPIHGFYIYYRPTDSDNDSDYKKDMVEGDKYWHSISHLQPETSYDIKMQCFNEGGESEFSNVMICETKARKSSGQ”, which “soluble on expression in E. coli” value is on record?
Its value is “soluble”.

For “MSSSSSSEDELEKKVTKEQKKKETKSKKRQSEAVEEEKQEVKKAKNEEEVSGRLKDSDGNEMFEIGNLRYATVSKFKGKEYVNIREYYIDRDSQKMMPSRKGISLSKAQWANLKDLIPEIDKKF”, which “soluble on expression in E. coli” value is on record?
The value was “soluble”.

With “MVVLKVTLLEGRPPEKKRELVRRLTEMASRLLGEPYEEVRVILYEVRRDQWAAGGVLFSDKEGT” as the sequence, how does the “soluble on expression in E. coli” value read?
Its value is “soluble”.

For “MAHHHHHHMGGYIGYNLVYNQQASVSQALWSREDEDVAPVSMPVRPRVALVNMTENLRSCAMGGLRAWLDVADEVELEFPTVTFVEDDEAGAIAGLAAEVRRAALFAWVELKERHEMDAPFGVKPLCCVVFRSITEVDGQALDAWDVQEVELRRWHGKRFVTRHCVGASVDGKRAMVLMHDVEGVIDVGPAAALAGGRVSDCGALVRQYGAPSTASFRRWKLSAEAQSSSTPVQPPAKSLQGLGIRLRDGQRCQLWQSPLHIFAALGAVLRYNRADAAVYPNHITTPVPVSQSASAVSASLWGCVKEWALRCTPTLLHWYTARQAERMERQRQLSSTFVVVVRLAEERAAVTSDVLRVVEEHVAEWMRDMNGASPMKTSLSTANRVCVRDAAARPEELMAAPTIQVDLTDTVCSVIAAEWLLIRLTSLFAALGLEPALAQLVAVPGPQASTSLLYPTPNTAHLRHLWLSRSATTSSSTITDNDAKSPRVTWSGRTTQGEHIAGCAATMPIEAGYVVSEHYFSAF”, which “soluble on expression in E. coli” value is on record?
Its value is “not soluble”.

With “MNEKVFRDPVHNYIHVNNQIIYDLINTKEFQRLRRIKQLGTSSYTFHGGEHS” as the sequence, how does the “soluble on expression in E. coli” value read?
The value was “soluble”.

With “MLRCADGALYTGVSTDVARRYRQHQAGKGARYTRLNPPLAVELVIEYPDRSAALRAEHAFKRLSAAAKRDFLRAHGDAGPSSLEHHHHHH” as the sequence, how does the “soluble on expression in E. coli” value read?
The value was “not soluble”.

Which “soluble on expression in E. coli” value does the source give for “MTTEAPIWPAELFEDLDRNGPIPLYFQVAQRLEDGIRSGVLPPGARLENEISVAKHLNVSRPTVRRAIQEVVDKGLLVRRRGVGTQVVQSHVTRPVELTSFFNDLKNANLDPKTRVLEHRLLAASSAIAEKLGVSAGDEVLLIRRLRSTGDIPVAILENYLPPAFNDVSLDELEKGGLYDALRSRGVVLKIANQKIGARRAVGEESTLLDIEDGGPLLTVERVALDNSGQVIELGSHCYRPDMYNFETTLVAR” here?
The value was “soluble”.

Which “soluble on expression in E. coli” value does the source give for “MGSDKIHHHHHHMTQLANTKFSLNDFELRDGIYFPSDYEQLNNTQHKKTWDAIGKTYYGSQKIEKLADTSPIKQDYTLLTGTPGGTWNKFPLNKSVGSILEIGSGYGRAPLHLSKAKNLRCEKYYGIDISEPLLRRLIKVKQEYNFFPEAEFNLICTSAEILPLEDNSIDLVISNCVFMHIPDAQLRSLLADISRVLKPGGIFVFNHSFHNKSCPSHIIHNFVRKLNPFVRNPVYLKQYSSAEINEMLASAGIQTKCPQYIVEPTEEYAILPETIKGIPVPFAKAINRSLKPSDALKETLAYGFSAYSSQLD” here?
Its value is “not soluble”.

With “GPGSMLRFTHRALTATPERFSVLGTTHPKPKRTGFGRNNKMRSKPSDNVAWYDKGPVEWLPRPVRLTYDHLDQLQQWMMRATLDGRTEEFNRIRDLHREWSQHPLMPVLGDVEPKFPLNLFKQNHRAKKRFLVRWHKANTPANWLWMPRGPTVVTPLHRTNPTQYPENWKQMVQRKSGTGTPS” as the sequence, how does the “soluble on expression in E. coli” value read?
The value was “not soluble”.

With “MGSDKIHHHHHHMNNKPVVGISGCLTGATVRFDGGHKRMDFVMNSLAPWVAYKPICPEVAIGLPVPRPALRLIQTTCGDIRMRYSHAPHDDVTERMNAFADRFLPTIGELAGFIVCAKSPSCGMERVRLYDEKGNRGRKAGTGLFTAAMMDKYPWLPIEEDGRLHDPVLRENFIARIFALHELNALRAQGLSRHSLLAFHSRYKLQLLAHHQAGYREIGPFVARLHEWDDLDAFFVRYREKLMAILRHPASRKNHTNVLMHIQGYFHRALNSRQRAELREVILGYRAGRLPILAPLTLLKHYLAEHPDDYLRSQNYFEPYPDTLGLRLAIT” as the sequence, how does the “soluble on expression in E. coli” value read?
The value was “not soluble”.

Which “soluble on expression in E. coli” value does the source give for “MGENYKFFNHKDCEFFPCHKTNKPEEFNCLFCYCPLYALGENCGGNFKYTDKGIKDCSSCILPHKKDNYNYIMSKFQDLVKITSKKLEHHHHHH” here?
Its value is “not soluble”.

For “MAIKNEIKNCLIMSVNPSYPLPLLCQYIPRYHPQMPTCPLFESKSIITPVFYFNCKRMDRSIDRRLCGHCHQSIGSEALVAMNRLWHPDHFTCSSCKRPIKQTFQAADNHAYCVQCFAQKYNPKCAGCMETLVDTCLLALDRHWHPRCFTCSSCNRPLPNGEFYLVDDKPYDLDCHWAKRLEKREHMERGER”, which “soluble on expression in E. coli” value is on record?
The value was “not soluble”.

For “KAQKLNEQHQLILSKLLREEDNKYCADCEAKGPRWASWNIGVFICIRCAGIHRNLGVHISRVKSVNLDQWTAEQIQCMQDMGNTKARLLYEANLPENFRRPQTDQAVEFFIRDKYEKKKYYDKNAIAI”, which “soluble on expression in E. coli” value is on record?
Its value is “soluble”.

For “MSMVETAPSKIQVRDLNFYYGKFHALKNINLDIAKNQVTAFIGPSGCGKSTLLRTFNKMYSLYPEQRAEGEILLDGDNILTNTQDIALLRAKVGMVFQKPTPFPMSIYDNIAFGVRLFEKLSRADMDERVQWALTKAALWNETKDKLHQSGYSLSGGQQQRLCIARGIAIRPEVLLLDEPCSALDPISTGRIEELITELKQDYTVVIVTHNMQQAARCSDHTAFMYLGELIEFSNTDDLFTKPAKKQTEDYITGRYG”, which “soluble on expression in E. coli” value is on record?
The value was “not soluble”.

For “MGSDKIHHHHHHMESMLKKICQDPVLQKDKDFLLFLTSDDFSSESKKRAFLTGSGAINDSNDLSEVRISEIQLLGAEDAAEVLKNGGIDAESHKGFMSISFSSLPKYNEADEFFIEKKQKIDELEDNLKKLSKSLEMVDTSRNTLAASTEEFSSMVETLASLNVSEPNSELLNNFADVHKSIKSSLERSSLQETLTMGVMLDDYIRSLASVKAIFNQRSKLGYFLVVIENDMNKKHSQLGKLGQNIHSEKFREMRKEFQTLERRYNLTKKQWQAVGDKIKDEFQGFSTDKIREFRNGMEISLEAAIESQKECIELWETFYQTNL”, which “soluble on expression in E. coli” value is on record?
Its value is “not soluble”.

With “MKRALFVAEKNDVAKGVAAILSNGTANRREGRSKFNKIYTLNTELFGQQTAISVTSVSGHMMNFQFHENMSNWQTASMVELFRAPVRHVVTPEMKLIEQTLREQAQRHDILVVWTDCDREGEAIGAEIVKVCRDSNRRLDIFRARFSEITKAAITRAARNLIRLDEKTVAAVDCRSELDLRIGSAFTRLQTLHLRNRFRDLLGQNDTSQVISYGSCQFPTLGFVTDRYKMIENFVSEPFWKLIVEHTRESHKVEFLWDRNRLFDRDTVDILHDECKETKEAHVEKVAKKPKSKWRPQALDTVELEKLGISKLRMSAKQTMQVAEKLYSKGFISYPRTETNKFPAGLNLTPLVQQQTQSNIWGDFANEVLQNGVNPRNGRKSDEAHPPIHPLKFTEKHQLQGDDWKVYELVVRHFLACVSQDAQGEETMVNLTVGTEKFHASGLRIRDMGYLKVYVYEKWGNRLLPTYTEGERFTDFELKIGDGKTQAPDFLTEADLISLMDKYGIGTDATHAEHIEKIKTREYIGVRPDGKLIPSFLGLALVDGYDDMGFAMSKPDLRANLEIGLKEICDGRRQKQEVLDEQIGKYRAIFVESERKIGVLSQSLQRYLDKNNQAGGGPGGPGGGGGPPRGPGGGGGGGPTGPPAPPKPPAKPRGRPPRKSISPAVKNGHDDPENDTIVTLSEVFGSMSNPKPARKPRAPRKSAAPKEQEEEEEVFCQCPEPMRAVTKVVQKEGPNKGKKFYTCSLPYTSSEKCNFFKWA” as the sequence, how does the “soluble on expression in E. coli” value read?
The value was “not soluble”.

For “GPGSMSINFSAPYLVTEMEEKVVTSLPSGDTASGSGESTASPPIVISAAVPYTEEEKKLLTEQLRRHQRQQSQGDDDSSWNETTLPFISSMVEKVLQLAAQNRESDSTKDSGSGDENKPQEKANATDDVAGADAVSKVDTFVEDNDYVLEQLRLQPWPFFTLPRLCEILADPYKYNSIGDKLRGEKLQSAIRRCVLVSAPLNCDVRNNSS”, which “soluble on expression in E. coli” value is on record?
Its value is “not soluble”.

With “APTIPQGQGKVTFNNTVVDAPCSISQKSADQSIDFGQLSKSFLEAGGVSKPMDLDIELVNCDITAFKGGNGAKKGTVKLAFTGPIVNGHSDELDTNGGTGLAIVVQGAGKNVVFDGSEGDANTLKDGENVLHYTAVVKKSSAVGAAVTEGAFSAVANFNLTYQ” as the sequence, how does the “soluble on expression in E. coli” value read?
The value was “soluble”.

For “MSLSNYWLGLDCGGSWLKAGLYDGAGREVAVQRLPLHALSPQPGWVERDMTELWQQCASVISKLLAHTGVSGSQIRGLGISAQGKGLFLLDKSDRPLGKAILSSDRRAMEIVQRWQKEAVPQKLYPLTRQTLWTGHPVSLLRWVKENEPQRYAQIGCVMMTHDYLRWCLTGVKGCEESNISESNLYNMATGQYDPRLTEWLGISEIDSALSPVVGSAEICGEITAQAAAITGLAAGTPVVGGLFDVVSTALCAGIEDESTLNAVMGTWAVTSGIAHGLRDHEAHPYVYGRYVNDGQYIVHEASPTSSGNLEWFTAQWGDLSFDEINQAVASLPKAGSDLFFLPFLYGSNAGLEMTCGFYGMQALHNRAHLLQALYEGVVFSHMTHLNRMRERFTEVCALRVTGGPAHSDVWMQMLADVSGLRIELPQVEETGCFGAALAARVGTGVYRDFREAQRDLQHPVRTLLPDMTAHALYQRKYRQYQDLIEALQGYHARIKEHALEGHHHHHH”, which “soluble on expression in E. coli” value is on record?
The value was “soluble”.
